{"source": "paper PMC2173303", "binders": {"B1": {"name": "HSE probe (dsDNA)", "DNA 1": "TCGGCTGGAATATTCCCGACCTGGCAGCCGA", "DNA 2": "TCGGCTGCCAGGTCGGGAATATTCCAGCCGA"}}, "target": "HSF1 (Homo sapiens, UniProt Q00613 1-529)", "sequence (Q00613 whole entry)": "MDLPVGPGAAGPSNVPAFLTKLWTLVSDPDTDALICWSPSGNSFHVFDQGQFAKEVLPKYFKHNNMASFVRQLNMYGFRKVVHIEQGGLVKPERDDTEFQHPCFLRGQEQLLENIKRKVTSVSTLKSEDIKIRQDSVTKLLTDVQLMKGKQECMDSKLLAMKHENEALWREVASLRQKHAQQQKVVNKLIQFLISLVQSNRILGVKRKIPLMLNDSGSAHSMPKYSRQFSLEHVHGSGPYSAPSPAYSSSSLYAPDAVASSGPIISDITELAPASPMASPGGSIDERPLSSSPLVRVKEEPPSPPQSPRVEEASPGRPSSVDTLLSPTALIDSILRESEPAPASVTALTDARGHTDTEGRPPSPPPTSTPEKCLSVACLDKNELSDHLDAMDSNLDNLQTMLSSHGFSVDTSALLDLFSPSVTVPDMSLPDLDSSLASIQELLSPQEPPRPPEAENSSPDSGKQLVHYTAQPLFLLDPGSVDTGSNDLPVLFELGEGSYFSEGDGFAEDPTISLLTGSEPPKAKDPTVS", "assay": "EMSA"}
{"binder": "B1", "values": [{"measurement": "binding result", "value": "binds"}]}
